Experimental data reported in US20220025010A1 (ANTAG THERAPEUTICS, published 2022).
Read-outs that look alike come from different tables or passages of the source. Where no end group is shown, it is not given here. The star is where a group is joined. C16 diacid = O=C(O)CCCCCCCCCCCCCCC(=O)*

T1: human GIP receptor (human, UniProt P48546 22-466)
T1 sequence (looked up): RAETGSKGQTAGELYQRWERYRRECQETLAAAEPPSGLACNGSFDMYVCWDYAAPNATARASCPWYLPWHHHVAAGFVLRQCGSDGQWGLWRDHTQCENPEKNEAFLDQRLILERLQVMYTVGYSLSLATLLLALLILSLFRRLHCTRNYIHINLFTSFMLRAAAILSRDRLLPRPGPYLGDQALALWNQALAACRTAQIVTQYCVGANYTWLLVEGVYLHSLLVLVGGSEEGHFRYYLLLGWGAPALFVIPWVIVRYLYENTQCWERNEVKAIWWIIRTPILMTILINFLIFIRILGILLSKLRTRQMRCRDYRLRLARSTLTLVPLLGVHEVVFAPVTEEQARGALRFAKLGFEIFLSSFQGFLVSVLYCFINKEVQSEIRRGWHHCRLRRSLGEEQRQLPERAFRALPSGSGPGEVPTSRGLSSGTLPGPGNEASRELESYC

B1: AT392 (peptide)
peptide: SGTFISDYSIAMDRIK(C16 diacid)QQDFVNWLLAQR-NH2
modifications: N-terminus assumed
SMILES: CC[C@H](C)[C@H](NC(=O)[C@H](CO)NC(=O)[C@H](Cc1ccc(O)cc1)NC(=O)[C@H](CC(=O)O)NC(=O)[C@H](CO)NC(=O)[C@@H](NC(=O)[C@H](Cc1ccccc1)NC(=O)[C@@H](NC(=O)CNC(=O)[C@@H](N)CO)[C@@H](C)O)[C@@H](C)CC)C(=O)N[C@@H](C)C(=O)N[C@@H](CCSC)C(=O)N[C@@H](CC(=O)O)C(=O)N[C@@H](CCCNC(=N)N)C(=O)N[C@H](C(=O)N[C@@H](CCCCNC(=O)CCCCCCCCCCCCCCC(=O)O)C(=O)N[C@@H](CCC(N)=O)C(=O)N[C@@H](CCC(N)=O)C(=O)N[C@@H](CC(=O)O)C(=O)N[C@@H](Cc1ccccc1)C(=O)N[C@H](C(=O)N[C@@H](CC(N)=O)C(=O)N[C@@H](Cc1c[nH]c2ccccc12)C(=O)N[C@@H](CC(C)C)C(=O)N[C@@H](CC(C)C)C(=O)N[C@@H](C)C(=O)N[C@@H](CCC(N)=O)C(=O)N[C@@H](CCCNC(=N)N)C(N)=O)C(C)C)[C@@H](C)CC
B2: AT257 (peptide)
peptide: GGTFISDYSIAMDRIK(C16 diacid)QQDFVNWLLAQR-OH
modifications: N-terminus assumed
SMILES: CC[C@H](C)[C@H](NC(=O)[C@H](CO)NC(=O)[C@H](Cc1ccc(O)cc1)NC(=O)[C@H](CC(=O)O)NC(=O)[C@H](CO)NC(=O)[C@@H](NC(=O)[C@H](Cc1ccccc1)NC(=O)[C@@H](NC(=O)CNC(=O)CN)[C@@H](C)O)[C@@H](C)CC)C(=O)N[C@@H](C)C(=O)N[C@@H](CCSC)C(=O)N[C@@H](CC(=O)O)C(=O)N[C@@H](CCCNC(=N)N)C(=O)N[C@H](C(=O)N[C@@H](CCCCNC(=O)CCCCCCCCCCCCCCC(=O)O)C(=O)N[C@@H](CCC(N)=O)C(=O)N[C@@H](CCC(N)=O)C(=O)N[C@@H](CC(=O)O)C(=O)N[C@@H](Cc1ccccc1)C(=O)N[C@H](C(=O)N[C@@H](CC(N)=O)C(=O)N[C@@H](Cc1c[nH]c2ccccc12)C(=O)N[C@@H](CC(C)C)C(=O)N[C@@H](CC(C)C)C(=O)N[C@@H](C)C(=O)N[C@@H](CCC(N)=O)C(=O)N[C@@H](CCCNC(=N)N)C(=O)O)C(C)C)[C@@H](C)CC

Experiments:
Test in all cases: cell-based or functional assay
human GIP receptor [1] = molecular target: T1, human GIP receptor
human GIP receptor [2] = molecular target: T1, human GIP receptor; remark: listed apart in the source
human GIP receptor [3] = molecular target: T1, human GIP receptor; remark: listed apart in the source
GLP1 receptor = GLP1 receptor (UniProt P43220 24-463, limits assumed)
glucagon receptor = glucagon receptor (UniProt P47871 26-477, limits assumed)
Sequence of glucagon receptor (P47871 26-477 limits assumed): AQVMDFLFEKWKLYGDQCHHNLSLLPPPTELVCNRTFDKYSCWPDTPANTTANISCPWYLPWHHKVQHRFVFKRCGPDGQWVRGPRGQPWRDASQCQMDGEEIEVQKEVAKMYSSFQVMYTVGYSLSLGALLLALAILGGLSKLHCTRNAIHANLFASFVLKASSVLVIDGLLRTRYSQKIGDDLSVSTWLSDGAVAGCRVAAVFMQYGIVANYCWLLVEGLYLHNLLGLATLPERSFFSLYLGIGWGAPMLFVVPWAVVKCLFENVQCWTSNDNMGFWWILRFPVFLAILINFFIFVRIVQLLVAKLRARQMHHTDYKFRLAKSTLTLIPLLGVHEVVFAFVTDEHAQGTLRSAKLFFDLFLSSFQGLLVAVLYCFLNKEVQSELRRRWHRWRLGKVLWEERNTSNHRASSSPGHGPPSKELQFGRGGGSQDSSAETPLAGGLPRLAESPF

| Binder | cAMP antagonism IC50 (finer than Table 1B) (human GIP receptor [1]) [nM] | CisBio cAMP antagonism pIC50 (human GIP receptor [2]) | DiscoveRx cAMP antagonism log IC50 (human GIP receptor [2]) [log M] | CisBio cAMP antagonism % inhib (human GIP receptor [3]) [%] | CisBio cAMP antagonism IC50 (human GIP receptor [3]) [nM] | cAMP antagonism % inhib (human GIP receptor [3]) [%] | cAMP antagonism IC50 (human GIP receptor [3]) [nM] | CisBio cAMP agonism % Efficacy (human GIP receptor [2]) [%] | CisBio cAMP antagonism % inhib (human GIP receptor [2]) [%] | CisBio cAMP antagonism IC50 (human GIP receptor [2]) [nM] | DiscoveRx cAMP agonism Emax (human GIP receptor [2]) | DiscoveRx cAMP antagonism IC50 (human GIP receptor [2]) [nM] | cAMP antagonism % inhib (GLP1 receptor) [%] | cAMP antagonism IC50 (GLP1 receptor) [nM] | cAMP antagonism index (GLP1 receptor) | cAMP antagonism log IC50 (GLP1 receptor) [log M] | cAMP antagonism % inhib (glucagon receptor) [%] | cAMP antagonism IC50 (glucagon receptor) [nM] | cAMP antagonism index (glucagon receptor) |
| --- | --- | --- | --- | --- | --- | --- | --- | --- | --- | --- | --- | --- | --- | --- | --- | --- | --- | --- | --- |
| B1 | 0.6 | 7.2 | -9.2 | 96 | 68.1 | 93 | 1 |  |  |  |  |  |  |  |  |  |  |  |  |
| B2 |  | 6.9 | -7.7 | 80 | 136 |  | 21 | 5 | 80 | 136 | 4 | 21 | 55 | 5390 | 256 | -5.3 | 100 | 15 | 1 |
